Laboratory results taken from article doi:10.1101/2024.12.27.630466.

Target: ErlA
Test: SEC

ErlB (natural protein)
stoichiometry N (ErlB per ErlA (4:4)): 1
